Assay results published in a protein production outcome set (Wang et al. 2014).

Test: label from the status in PepcDB records

Row | Sequence | protein production
1 | MKKRILSAVLVSGVTLGAATTVGAEDLSTKIAKQDSIISNLTTEQKAAQNQVSALQAQVSSLQSEQDKLTARNTELEALSKRFEQEIKALTSQIVARNEKLKNQARSAYKNNETSGYINALLNSKSISDVVNRLVAINRAVSANAKLLEQQKADKVSLEEKQAANQTAINTIAANMAMAEENQNTLRTQQANLEAATANLALQLASATEDKANLVAQKEAAEKAAAEALAQEQAAKVKAQEQAAQQAASVEAAKSAITPAPQATPAAQSSNAIEPAALTAPAAPSARPQTSYDSSNTYPVGQCTWGAKSLAPWAGNNWGNGGQWAYSAQAAGYRTGSTPMVGAIAVWNDGGYGHVAVVVEVQSASSIRVMESNYSGRQYIADHRGWFNPTGVTFIYPHLEHHHHHH | failed
2 | MPHLRTILPQLRNNWFFIALLTSCGLWCFFAPSLLGALLFSITVIRIVCTKSFPVILGGFLCSFLIVGGILIFQWLKPVSLLPKEVRLSGQLTILPDEIQVDGDQVKFPANWIVKGKRQKVMAFYQLKSVKEKQQWQQLTTTIQATAVGILDSPQGQTNKNGFNYQLFLKNQGIEAILFIEEIGQPRSFFSWRFKEIISGWRKWAMVHIQKNFAETSAMYMNALLLGFRNEEFAEISDKFSALGILHLFSLSGMHVSFFLRLFRLLMLRIARRTQESYFLWQCGFSLIYAGLTGFSVSVMRALLQTNLNTFNRRFNWQVPALDCWSLTLLVHLIVQPTLFFSVGGQFSYLLSFVLLFLEQTLVGYSSPFIKNCLGSFLLAVASLPILVQSFYEWPLLGSFLTFLLLPIFERFLLPLLTLSFFLVIIMPARYLAALLEPLFLTMNGLFEWVLVHLNPKLTIGYLNSWIQISLLLLIGFSMIYLADKSKKIFFSIGLLIVLINSKYLSPIGIVAMIDVGQGDSLFIQAPFHRKNTLIDTGGRLSFGKEAWRQRKNSRSGAEYSVIPFLKSQGVKRLDEVIITHAHEDHFGDLLAIAQKVPISVLYFPKGAAEANFSFRQVLKQLQKSGTDCRPILAPKRINGPVSFQILSPNKSSIGGNNDSIVFSTQLGGRHFLFTGDLEAEGEEQVLARYPQLKIDILKVGHHGSKTSSTKRFIKQLNPREALISAGLNNRFKHPHQETLATLEEQKINYYRTDLQGMIYYQWLPWQGLSKAKFVKEQD | failed
3 | MEKNVSQVTAQEETALKARGYNEDLLPSSPKQRTMGARNFFTLWMGSIHNIPNYAAVGGFIFLGLSPLQVMLAVVLSSFIVATFMNLNGVAGSKYGIPFAMHLQSTYGSLGAKLPGFLRGCVAAIAWFGLQTFTGSLALLIILGKFWPNFLEIGGSFQFFGLRLPELMAFTLFWLLNVAIGFGGSKILNRFTAILSPLIYVVIIGLTIWAIRAGGGLTPILSYQVSGAIRSVNPLVAYLIIFNSVVAVWSAPGASVADFTKNARSTRAQVVGQTTGLVVGYGIFAFSSVVILLGGSLYFGIQEWNILNIIDRLDNVAVVVLAMSVFLLTTISTNATGNIIPAGYQLAALFPKKMTYKKGVMIASVISFLIMPWKLMENADSIFIFLNAIGAVLGPVAGVMIANYYFVQKQQIDLNALYVDKHKKEEANPFYGLNKPAYVATILALVLSLSGQFIPQVKIIADISWFVGFATGFVLYLVLKKWTWDSKKVKETAYQEGK | failed
4 | MAGYKPVAIQTYPVLGEKITQDTLYWNNYKTPVQIKEFGAVSKVDFSPQLPYNYAVTASSRIHIYGRYSQEPVKTFSRFKDTAYCATFRQDGQLLVAGSEDGVVQLFDINGRAPLRQFEGHTKAVHTVDFTADNYHVVSGADDYTVKLWDIPNSKEILTFKEHSDYVRCGCASKLNPDLFVTGSYDHTVKIFDARTNKNVLCVEHGQPVESVLLFPSGGLLVSAGGRYVKVWDMLKGGQLLVSLKNHHKTVTCLCLSSSGQRLLSGSLDRKVKVYSTTSYKVVHSFDYAASILSLALSHQDETIVVGMTNGILSVKHRKSEAKKTSLPRRRRPAYRTFIKGKNYLKQRDDIMVSRPAKKHLEGYDKDLKSFRVSQALDRVLEPKCVIRTPEVTVSIIKELTRRGVLANALAGRDEKEVTRVLNFLIRNLSQPRFAPVLINAAEIIIDIYLPVIGQSSVVDKKFIVLQELVEKEIDYQRELLETLGMMDMLFATMTRNDSDPVPEHVPAELPEEKTESPTQPSDTDKNS | failed
5 | MSLAQIKSLFATRLYHAPLSEHGPALDPAEFAASCYSIAEDDDAGQEWCEREGYPGYTSYASLTDLPWRFPIFADLVKSLDAHVAAFAEDLEFELDGKALRLEDIWINILPEGGVHGSHIHPHSVISGTTYVAMPEGTSALKLEDPRLPFMMAAPTRRKGAREELRTFRSVAPKVGDVLLWESWLRHEVPMNMAEEDRISVSFNYAWGEGHHHHHH | not failed
6 | MSSEVEQNVPCEACGCSAEMGFVIKEGDDVAEVSIFADNKVLLESEFSNYLALAKEVCADVEHSIVITEDEKELHARLKFSCSAEKLIYELKTRSLRRLEHHHHHH | failed
7 | MAFIIDLLLLCCSAFMSSCEVAYFSLKPIDLQNIRERNHSSDIALSNLLDNSNQLLATILIGNNVINVAIVILSNYAIEQTFVFSSPIIGFLIQTILLTTVLLLFGEILPKVYARKNPLQYSRFSAAAMSVIYKILSPFSKLLVKSTGIVTRGISKKKYDMSVDELSKAVALTTTEGEPEEKEMINEIIKFYNKTACEIMVPRIDIVDVDLSWPFRKMLDFVVSSGYSRLPVSEGSEDNIKGVIYIKDLIPHMDKGDEFDWHPLIRKAYFVPENKRIDDLLEEFRANKVHVSIVVDEFGGTCGLITMEDILEEIVGEITDEYDEEELPFKVLGDGSYLFEGKTSLSDVRHYLDLPENAFGELGDEVDTLSGLFLEIKQELPHVGDTAVYEPFRFQVTQMDKRRIIEIKIFPFERTWEVE | failed
8 | MAINLTPLIGFLPEFIISAIISGFLFQAITNDKTFVRPIIGGKKPEQKSILKKVSSRRKPVDMKEYERMKNKTRYQALLFNSNMHIISSSALTVSAWILLIYAMIGIGKSSIFMPTFGFKINFIVYALLVIIFSVAMISSFSQVVRLREIYRIIASVFAVLSVVIFFEIPAMKWLFYIFPKVIVSYIFIYFAGLFILFLCYSLWWKLAPKITFYVSFYSSILTYFAIVSLMIYNSIPKL | failed
9 | RDRSTIARIQFRLPDGSSFTNQFPSDAPLEEARQFAAQTVGNTYGNFSLATMFPRREFTREDYKRRLLDLELAPSASVVLLPAGRPATSIVHSSSGDILMID | not failed
10 | NLMKRCTRGFRKLGKCTTLEEEKCKTLYPRGQCTCSDSKMNTHSCDCKSC | not failed
11 | MVDDNTDQSLSFGRLLFGAGLALQASEDFREMDETVEYAESAGVPVPDVLAPLASGMMLVGGIGVALWRFPRIATGAVVTFLAVVTPTMHDFWNAEPGDRSGERLAFFGNLAMLGAALAYLRKAYR | failed
12 | MNKMIILLVIAIIFLHMCLIWLWYRYTNNPSVVDVGWASGLTLAGLIYLNNQEFSLRSLLLVLALLTWGIRLGGYLWWTRIRLKKIDKRYLALSNDWKLAKPLGFFLNFQLQGVLICLVSIPWYFSSSETQTALNLLDGLALIIFLTALILETVADNQLQDFKKNYPGKVCNQKLWRYCRHPNYFYEWLVWCSFTLFALSAPYGWIAIISPLTLYLIMTKITAPMTEQGSIESRGNLYIEYQKVTPMFFPKWLKNNSTPRK | failed
13 | MAYLEVLRYLYHKRPMGKVKPGLERISMLLSKLGNPHLEYKTIHIGGTNGKGSVANMVSNILVSQGYRVGSYYSPHLSTFRERIRLNEEYISEEDVVKIYETMEPILNELDKEEIFSPSFFEVVTAMAFLYFAEKNVDIAVLEVGLGGRLDATNVVFPLCSTIVTVDRDHEKTLGYTIEQIAWEKSGIIKERVPLVTGERKREALKVMEDVARKKSSRMYVIDKDFSVKVKSLKLHENRFDYCGENTFEDLVLTMNGPHQIENAGVALKTLEATGLPLSEKAIREGLKNAKNLGRFEILEKNGKMYILDGAHNPHGAESLVRSLKLYFNGEPLSLVIGILDDKNREDILRKYTGIFERVIVTRVPSPRMKDMNSLVDMAKKFFKNVEVIEDPLEAIESTERATVVTGSLFLVGYVREFLTTGKINEEWKL | not failed
14 | MHVLNILWVVFGIGLMLVLNLKFKINSMVALLVAALSVGMLAGMDLMSLLHTMKAGFGNTLGELAIIVVFGAVIGKLMVDSGAAHQIAHTLLARLGLRYVQLSVIIIGLIFGLAMFYEVAFIMLAPLVIVIAAEAKIPFLKLAIPAVAAATTAHSLFPPQPGPVALVNAYGADMGMVYIYGVLVTIPSVICAGLILPKFLGNLERPTPSFLKADQPVDMNNLPSFGVSILVPLIPAIIMISTTIANIWLVKDTPAWEVVNFIGSSPIAMFIAMVVAFVLFGTARGHDMQWVMNAFESAVKSIAMVILIIGAGGVLKQTIIDTGIGDTIGMLMSHGNISPYIMAWLITVLIRLATGQGVVSAMTAAGIISAAILDPATGQLVGVNPALLVLATAAGSNTLTHINDASFWLFKGYFDLSVKDTLKTWGLLELVNSVVGLIIVLIISMVA | failed
